Test results: the supplement of paper PMC6755084

B1: F1*; the commonest letter at each place (parent)
chain: GAGACCGCAACTGAAAAGTTGTTATCACTTGTCGTAAGACACTTTGGATGGGTTGAAGTTCTGCACGTAGAAGCAAAAGGC

Variants of: B1
Assay: fraction ligated after 30 min (ligated reads / total reads); higher = more ligase activity
Conditions: with F1*sub RNA substrate (template-directed ligation), 42 °C
Procedure: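 Chip-synthesised pool of F1* ligase ribozyme variants (all single and double substitutions, single, double and triple deletions in the catalytic core and GAA bulge, plus designed variants) was transcribed with T7 and reacted as a pool with excess substrate F1*sub for 30 min at 42 C in 50 mM EPPS pH 8.5, 25 mM MgCl2. Ligated and unligated bands were separated by PAGE, barcoded by RT and deep sequenced; fraction ligated = ligated reads / total reads per variant, relative activity = FL / FL of wild type (0.826). Sequences are the DNA template of the ribozyme.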

Variant | fraction ligated
GAGACCGCAACTGAAAAGTTGTTATCACTTGTCGTGATACACTTTGGATGGGTTGAAGTTCTGCACGTAGAAGCAAAAGGC [A36G G38T] | 0.806
GAGACCGCAACTGAAAAGTTGTTATCAATAGTCGTAAGACACTTTGGATGGGTTGAAGTTCTGCACGTAGAAGCAAAAGGC [C28A T30A] | 0.8
GAGACCGCAACTGAAAAGTTGTTATCACTTGTCGTAAGAGACTTCGGATGGGTTGAAGTTCTGCACGTAGAAGCAAAAGGC [C40G T45C] | 0.669
GAGACCGCAACTGAAAAGTTGTTATCACTTGTCGTAAGACACATTGGATGGGTTCAAGTTCTGCACGTAGAAGCAAAAGGC [T43A G55C] | 0.724
GAGACCGCAACTGAAAAGTTGTTATCACTTCTCTTAAGACACTTTGGATGGGTTGAAGTTCTGCACGTAGAAGCAAAAGGC [G31C G34T] | 0.778
GAGACCGCAACTGAAAAGTTGTTATCACTTGTCGTAAGACACTTTGGATGGGTTGAAGTTCTGCACGTAGAAGCAAAAGGC [unchanged] | 0.826
GAGACCGCAACTGAAAAGTTGTTATCACTTGTCGTAAAACACTATGGATGGGTTGAAGTTCTGCACGTAGAAGCAAAAGGC [G38A T44A] | 0.838
GAGACCGCAACTGAAAAGTTGTTATCACTTGTCGTAAGACACATTAGATGGGTTGAAGTTCTGCACGTAGAAGCAAAAGGC [T43A G46A] | 0.789
GAGACCGCAACTGAAAAGTTGTTATAACTTGTCGTAAGACACTGTGGATGGGTTGAAGTTCTGCACGTAGAAGCAAAAGGC [C26A T44G] | 0.78
GAGACCGCAACTGAAAAGTTGTTTTCACTTGTCGTAAGACACTTTGCATGGGTTGAAGTTCTGCACGTAGAAGCAAAAGGC [A24T G47C] | 0.0331
GAGACCGCAACTGAAAAGTTGTTATCACTTGTCGTAAGACACCTTGGATGGGTTGTAGTTCTGCACGTAGAAGCAAAAGGC [T43C A56T] | 0.755
GAGACCGCAACTGAAAAGTTGTTAGCACTTGTCGTAAGACACATTGGATGGGTTGAAGTTCTGCACGTAGAAGCAAAAGGC [T25G T43A] | 0.684
GAGACCGCAACTGAAAAGTTGTTTTCACTTGTCGTAAGTCACTTTGGATGGGTTGAAGTTCTGCACGTAGAAGCAAAAGGC [A24T A39T] | 0.619
GAGACCGCAACTGAAAAGTTGTTATCACACGTCGTAAGACACTTTGGATGGGTTGAAGTTCTGCACGTAGAAGCAAAAGGC [T29A T30C] | 0.856
GAGACCGCAACTGAAAAGTTGTTATCACTTGTCCTAAGAAACTTTGGATGGGTTGAAGTTCTGCACGTAGAAGCAAAAGGC [G34C C40A] | 0.805
GAGACCGCAACTGAAAAGTTGTTATCACTTGTCGTAACACACTATGGATGGGTTGAAGTTCTGCACGTAGAAGCAAAAGGC [G38C T44A] | 0.845
GAGACCGCAACTGAAAAGTTGTTATCACTTGTCGTAAGATACTTAGGATGGGTTGAAGTTCTGCACGTAGAAGCAAAAGGC [C40T T45A] | 0.791

Variant | fraction ligated
GAGACCGCAACTGAAAAGTTGTTATCACTTGTCGTAATCCACTTTGGATGGGTTGAAGTTCTGCACGTAGAAGCAAAAGGC [G38T A39C] | 0.79
GAGACCGCAACTGAAAAGTTGTTATCACTTGTCGTAAGACATTTTGGATGGGTTTAAGTTCTGCACGTAGAAGCAAAAGGC [C42T G55T] | 0.848
GAGACCGCAACTGAAAAGTTGTTCTCACTTGTCGTAAGACACCTTGGATGGGTTGAAGTTCTGCACGTAGAAGCAAAAGGC [A24C T43C] | 0.231
GAGACCGCAACTGAAAAGTTGTTATCACTTGTGGTAAGACACTTTGGATGGGTTGAGGTTCTGCACGTAGAAGCAAAAGGC [C33G A57G] | 0.881
GAGACCGCAACTGAAAAGTTGTTATCACTTGTCGTAAGACACTTTGGATGGGTTAGAGTTCTGCACGTAGAAGCAAAAGGC [G55A A56G] | 0.821
GAGACCGCAACTGAAAAGTTGTTATCACTTGTCGTAACACACTTTGGATGGGTTGAAGTTCTGCACGTAGAAGCAAAAGGC [G38C] | 0.825
GAGACCGCAACTGAAAAGTTGTTATCACTTTTCGTAAGACACTTTAGATGGGTTGAAGTTCTGCACGTAGAAGCAAAAGGC [G31T G46A] | 0.79
GAGACCGCAACTGAAAAGTTGTCAGCACTTGTCGTAAGACACTTTGGATGGGTTGAAGTTCTGCACGTAGAAGCAAAAGGC [T23C T25G] | 0.672
GAGACCGCAACTGAAAAGTTGTTATCACTTGTCGTAAAACACTTTGGATGGGTTGTAGTTCTGCACGTAGAAGCAAAAGGC [G38A A56T] | 0.808
GAGACCGCAACTGAAAAGTTGTCATCACTAGTCGTAAGACACTTTGGATGGGTTGAAGTTCTGCACGTAGAAGCAAAAGGC [T23C T30A] | 0.802
GAGACCGCAACTGAAAAGTTGTTATCACTTGTCGTAAGACACGATGGATGGGTTGAAGTTCTGCACGTAGAAGCAAAAGGC [T43G T44A] | 0.808
GAGACCGCAACTGAAAAGTTGTTATCACTTGTCGTAAGACGCTTTGGATGGGTTGATGTTCTGCACGTAGAAGCAAAAGGC [A41G A57T] | 0.76
GAGACCGCAACTGAAAAGTTGTTATCACTTGTCGCAATACACTTTGGATGGGTTGAAGTTCTGCACGTAGAAGCAAAAGGC [T35C G38T] | 0.821
GAGACCGCAACTGAAAAGTTGTTATCACTTGTCGTAAGACACTTTCGATAGGTTGAAGTTCTGCACGTAGAAGCAAAAGGC [G46C G50A] | 0.0524
GAGACCGCAACTGAAAAGTTGTTATCACTTGTCATAAAACACTTTGGATGGGTTGAAGTTCTGCACGTAGAAGCAAAAGGC [G34A G38A] | 0.861
GAGACCGCAACTGAAAAGTTGTTGTCACTTGTCGTGAGACACTTTGGATGGGTTGAAGTTCTGCACGTAGAAGCAAAAGGC [A24G A36G] | 0.813
GAGACCGCAACTGAAAAGTTGTTATCTCTTGTCGTAAGACACTTTGGATGGGTTAAAGTTCTGCACGTAGAAGCAAAAGGC [A27T G55A] | 0.812
